Drawing on patent publication US20220332808A1, “HUMAN-DERIVED ANTI-HUNTINGTIN (HTT) ANTIBODIES AND USES THEREOF” (published 2022), this text covers EC50 and fold preference of HD49 vs. HD21 for five molecules.

Several values for one entry are separate records, joined by “and”; a condition that tells them apart may be missing. Equal entries are not always repeated. Where no end group is shown, it is not given here.

In experiment [1] the target is GST-HttExon1Q49 (human) (UniProt P42858). Description: direct ELISA, coated at 5 µg/ml. On the technique in general: ELISA stands for enzyme-linked immunosorbent assay.
The target in experiment [2] is HD49: huntingtin Exon1 protein with 49 polyQ repeats, GST tag cleaved off, aggregation reaction (human, UniProt P42858). Kind of experiment: direct ELISA, coated at 5 µg/ml. As to the method:
(§1) To determine the half maximal effective concentration (EC₅₀) of recombinant human-derived HTT antibody […] to soluble and aggregated huntingtin Exon1 proteins with 21 or 49 polyQ repeats direct ELISA was performed. In brief, 96 well microplates (Corning) were coated with either GST-HD21, GST-HD49 or aggregated HD21 or HD49 at a concentration of 5 μg/ml in coating buffer (15 mM Na2CO3, 35 mM NaHCO₃, pH 9.42). Nonspecific binding sites were blocked for 1 h at RT with PBS/0.1% Tween®-20 containing 2% BSA (Sigma-Aldrich, Buchs, Switzerland). Primary antibodies were diluted to the indicated concentrations and incubated 1 h at RT. Binding was determined using either a donkey anti-human IgG Fcγ-specific antibody conjugated with HRP or a goat anti-mouse IgG (H+L)-specific antibody conjugated with HRP, followed by measurement of HRP activity in a standard colorimetric assay. Subsequently, EC₅₀ values were estimated by a non-linear regression using GraphPad Prism software (San Diego, USA).
(§2) To determine the half maximal effective concentration (EC₅₀) of recombinant human-derived HTT antibodies NI-302.35C1 and NI-302.72F10 to soluble and aggregated HTT Exon1 proteins with 21 or 49 polyQ repeats direct ELISA and EC50 determination was performed as described in Example 6, supra.
(§3) To determine the half maximal effective concentration (EC₅₀) of recombinant human-derived HTT antibody NI-302.7D8 to soluble and aggregated HTT Exon1 proteins with 21 or 49 polyQ repeats direct ELISA and EC50 determination was performed as described in Example 6, supra.

Experiment [3] addresses all four species: aggregated HD49, aggregated HD21, soluble GST-HD49 and GST-HD21 Htt Exon 1 proteins. Kind of experiment: direct ELISA, coated at 5 µg/ml.
Experiment [4] concerns the target T1, BSA-coupled polyP repeat peptide of Htt Exon1 (human, also: coupled to BSA).
T1 peptide: PPPPPPPPPPP
Description: direct ELISA on BSA-coupled Htt Exon1 peptides. As to the method: (§4) To determine the half maximal effective concentration (EC₅₀) of recombinant human-derived HTT antibody NI-302.33C11 to BSA-coupled peptide fragments of the huntingtin Exon 1 direct ELISA with BSA-coupled Htt Exon1 domain peptides was performed.
(§5) In brief, 96 well microplates (Corning) were coated with BSA-coupled synthetic peptides (Schafer-N, Denmark) of the N-terminal amino acid 1-19 ([…], SEQ ID No.: 93), the P-rich domain sequence ([…], SEQ ID No.: 94), the polyP repeat sequence ([…], SEQ ID No.: 95) or the 14 C-terminal amino acids ([…], SEQ ID No.: 96) or with the full lengths GST-HD49 Exon 1 protein at […] in coating buffer (15 mM Na2CO3, 35 mM NaHCO₃, pH 9.42). Non-specific binding sites were blocked for 1 h at RT with PBS/0.1% Tween®-20 containing 2% BSA (Sigma-Aldrich, Buchs, Switzerland). Primary antibodies were diluted to the indicated concentrations and incubated 1 h at RT. Binding was determined using donkey anti-human IgG Fcγ-specific antibody conjugated with HRP, followed by measurement of HRP activity in a standard colorimetric assay and the EC₅₀ values were estimated by a non-linear regression using GraphPad Prism software (San Diego, USA). […]

The target in experiment [5] is GST-HttExon1Q21 (human) (UniProt P42858). Kind of experiment: direct ELISA, coated at 5 µg/ml.
Experiment [6] has as its target GST-HttExon1Q49 (human) (UniProt P42858). Kind of experiment: direct ELISA.
For experiment [7], the target named is HD21: huntingtin Exon1 protein with 21 polyQ repeats, GST tag cleaved off, aggregation reaction (human, UniProt P42858). Description: direct ELISA, coated at 5 µg/ml. As to the method:
as §1, §2, §3

Experiment [8] deals with T2, BSA-coupled C-terminal peptide of Htt Exon1 (the 14 C-terminal amino acids) (human, also: coupled to BSA).
T2 peptide: PPGPAVAEEPLHRP
Description: direct ELISA on BSA-coupled Htt Exon1 peptides. As to the method:
as §4, §5

The target in experiment [9] is T3, C-terminal peptide of Htt Exon1 coated directly to the plate (not coupled to BSA) (human).
T3 peptide: PPGPAVAEEPLHRP
Description: direct ELISA, peptide coated directly.

GST-HttExon1Q49 (human), sequence (P42858 1-88, change not shown): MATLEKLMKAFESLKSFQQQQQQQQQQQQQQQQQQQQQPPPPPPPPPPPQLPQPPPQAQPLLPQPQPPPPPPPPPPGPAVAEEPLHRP
GST-HttExon1Q21 (human), sequence (P42858 1-88, change not shown): as above

B1: NI-302.7D8 (antibody, V domains shown)
VH: QVQLVQSGSELKKPGASVKVSCKASGYNFNNYAINWLRQAPGQGLEWMGWINTITGHPTYAQGFKGRFVFSLDTSVSTAYLQISSLKPEDTAVYYCARTYSNYGEFDYWGQGTLVTVSS
VL: QSALTQPASVSGSRGQSITISCTGTSSDVGSYNLVSWYQQYPGKAPKLIIHEGSERPSGVSNRFSGSKSGNTASLTISGLQAEDEADYYCCSYAGTTTFVLFGGGTKLTVL
Take B1: the results for the EC50 in [1] and in [2] were 6 nM and 17 nM, respectively.

B2: NI-302.63F3 (antibody, V domains shown)
VH: QVQLVQSGSAFKKPGTSVKVSCKASGYTFETRSMNWVRQAPGQGLEYMGWINTNTGNRTYVQAFRGRFVFSLDTSVSTAYLQISNLKTEDTAVYYCARGAGGGYWFDSWGQGTLVTVSS
VL: DIQMTQSPDSLAVSLGERATINCKSNQSLFYSSNNNNYLAWYQHKSGQPPKLLVYWGSTRESGVPDRFSGSGSGTDFTLTISSLQAEDVAIYYCHQYYHNPYTFGQGTKLEIK
Take B2: the EC50 in experiment [3] was 0.2 to 0.4 nM.

B3: NI-302.33C11 (antibody, V domains shown)
VH: EVQLVESGGGVVQPGNSLRLSCAASGFRFSDFGMHWVRQAPGKGLEWLALIWYDGGYKYYADSVKGRFTISRDNSKNTMFLQMNSLRAEDTAVYYCATHLEYCSRTTCYLGHWGQGTLVTVSS
VL: DIQLTQSPSFLSASVGDTVTFTCRASQGISDYLAWFQQKPGIAPKLLIYAASTLQTGVPSRFSGSGSGTEFTLTIRSLQSEDFGTYYCQQLKTYPYTFGQGTKVEIK
In the case of B3, the EC50 was 0.03 nM in [4]; 0.1 nM in experiment [5]; 0.1 nM in experiment [1]; 0.03 nM in experiment [6]; about 0.1 nM in experiment [7]; about 0.1 nM in [2].

B4: NI-302.15F9 (antibody, V domains shown)
VH: EVQLVESGGGLVTPGGSLRLSCEASGFLFKNSSMNWVRQTPGKGLEWVSSIDTSATNYKYYADSVKGRFTISRDDATNSLYLQMNSLRADDTATYYCARGYYTPRDFDYWGQGTLVTVSS
VL: DVVMTQSPQTLSVSLGQAASISCRSSQSLLYRDNNTYLNWFHQRPGQSPRRLIYRASDRDSGVPDRFSGGGSGTDFTLKISGVEAEDVGTYYCMQGTHWPRTFGQGTKVEIK
As for B4, in experiment [3], the EC50 is 5 nM and 35 nM; the fold preference of HD49 vs. HD21 is 5 fold.

B5: NI-302.35C1 (antibody, V domains shown)
VH: EVQLVESGGNLVQPGGSLRLSCTASGFTFSITALSWVRQAPEKGPQWVSAITGNAYGTYYADSVKGRFTISRDNAKNTLYLQMNGLRAEDTAIYYCVKGIASDSSGYSAFWGPGTLVTVSS
VL: EIVLTQSPATLSLSPGERATLSCRASQSVDNQFAWYQQKPGQAPRLLIYDASRRAPGIPDRFSGSGSGTDFTLTISSLEPEDFAIYYCQHRYTWLYTFGQGTRLEIK
Take B5: the EC50 was about 0.7 nM in experiment [8], 3.2 nM in experiment [6], over 100 nM in experiment [9] and about 2.7 nM in experiment [2].

For orientation: EC50 means the concentration needed to bring the measured effect to its halfway point. Read a low EC50 as an effect from little substance.
